Reference: paper PMC3913438, “Nucleotide Pyrophosphatase/Phosphodiesterase 1 Exerts a Negative Effect on Starch Accumulation and Growth in Rice Seedlings under High Temperature and CO2 Concentration Conditions” (Plant and Cell Physiology, 2013)
Values belong to the molecule of their own block, whether it stands above or below them.

Legend:
NPP1 = target: T1, NPP1 (Oryza sativa, UniProt Q0X0G2); test: hydrolysis kinetics, […] substrate; type: biochemical; conditions: 37°C, optimal pH
T1 construct: recombinant, purified from transgenic rice cells (UNP1) overexpressing NPP1 cDNA; 70 kDa SDS-PAGE, 251 kDa gel filtration; gene on chromosome 8
T1 sequence (Q0X0G2 26-623): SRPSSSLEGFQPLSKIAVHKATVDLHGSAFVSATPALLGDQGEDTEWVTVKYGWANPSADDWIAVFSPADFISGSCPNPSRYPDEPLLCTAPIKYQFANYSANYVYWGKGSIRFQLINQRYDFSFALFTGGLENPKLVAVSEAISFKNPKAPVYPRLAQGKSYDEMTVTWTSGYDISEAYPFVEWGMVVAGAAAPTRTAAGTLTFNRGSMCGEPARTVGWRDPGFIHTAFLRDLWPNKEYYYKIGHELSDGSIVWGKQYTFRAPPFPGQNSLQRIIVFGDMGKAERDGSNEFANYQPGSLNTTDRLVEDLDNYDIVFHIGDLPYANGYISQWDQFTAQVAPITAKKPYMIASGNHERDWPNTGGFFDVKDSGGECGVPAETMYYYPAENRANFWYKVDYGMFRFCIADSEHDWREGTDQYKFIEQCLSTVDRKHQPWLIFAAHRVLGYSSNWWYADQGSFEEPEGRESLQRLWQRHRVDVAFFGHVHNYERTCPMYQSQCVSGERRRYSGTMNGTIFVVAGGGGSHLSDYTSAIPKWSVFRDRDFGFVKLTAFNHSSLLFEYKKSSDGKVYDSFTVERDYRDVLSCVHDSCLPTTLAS

purified protein [1] = substrate: Nc1ncnc2c1ncn2[C@@H]1O[C@H](COP(=O)(O)OP(=O)(O)O[C@H]2O[C@H](CO)[C@@H](O)[C@H](O)[C@H]2O)[C@@H](O)[C@H]1O; test: purified protein; type: biochemical, Oryza sativa; conditions: 37°C
purified protein [2] = substrate: NC(=O)c1ccc[n+]([C@@H]2O[C@H](COP(=O)(O)OP(=O)(O)OC[C@H]3O[C@@H](n4cnc5c(N)ncnc54)[C@H](O)[C@@H]3O)[C@@H](O)[C@H]2O)c1; test: purified protein; type: biochemical, Oryza sativa; conditions: 37°C, optimal pH
[3] = substrate: NC(=O)c1ccc[n+]([C@@H]2O[C@H](COP(=O)([O-])OP(=O)(O)OC[C@H]3O[C@@H](n4cnc5c(N)ncnc54)[C@H](OP(=O)(O)O)[C@@H]3O)[C@@H](O)[C@H]2O)c1; test: purified protein, by the assay type; parameters: steady-state hydrolysis kinetics of purified recombinant rice NPPs, substrate 0.1-10 mM, 37 °C, optimal pH
Description: (§1) To carry out substrate specificity and kinetic studies of NPP1, NPP2 and NPP6, in this work we produced transgenic rice cells ectopically expressing NPP1, NPP2 and NPP6 and purified the corresponding recombinant proteins as described in the Materials and Methods. Details of the processes for purification of recombinant proteins and quality of the final preparations are shown in Supplementary Table S2 and Supplementary Fig. S1A. […] Purification procedures of NPP1, NPP2 and NPP6 expressed in the transgenic rice cells (UNP1, UNP2 and UNP6, respectively) were essentially identical to those used in the earlier study ([Nanjo et al. 2006]). They are summarized in Supplementary Table S2. Rice callus cells (200 g) derived from the seed embryos of UNP1, UNP2 and UNP6 lines were homogenized in 5 vols. of 10 mM Tris–HCl (pH 8.8) and filtered through four layers of gauze. The homogenates were centrifuged at 20,000 × g for 10 min. The supernatants were then adjusted to acidic pH 5.4 with acetate buffer and centrifuged at 20,000 × g. After re-adjustment to pH 7.4 with 1.5 M Tris–HCl (pH 8.8) and further centrifugation at 20,000 × g, the resulting supernatants were applied to a Con A–Sepharose 4B column (ø 1.0 × 8 cm, Pharmacia) equilibrated with 40 mM Tris–HCl (pH 7.4), 0.5 M NaCl, 1 mM MnCl2 and 1 mM CaCl2, and eluted with 25 ml of 0.5 M α-methyl-D-mannopyranoside in 10 mM Tris–HCl (pH 7.4). The eluents were applied to a Q Sepharose HP column (ø 1.0 × 3 cm, Pharmacia) equilibrated with 10 mM Tris–HCl (pH 7.4) and eluted with 50 ml of a linear gradient of 0–0.5 M NaCl in 10 mM Tris–HCl (pH 7.4). Finally, the enzyme preparation was desalted by ultrafiltration on a Microcon YM-100 (Amicon).

purified protein [4] = substrate: O=c1ccn([C@@H]2O[C@H](COP(=O)(O)OP(=O)(O)O)[C@@H](O)[C@H]2O)c(=O)[nH]1; test: purified protein; conditions: 37°C, optimal pH
purified protein [5] = substrate: O=[N+]([O-])c1ccc(OP(=O)(O)Oc2ccc([N+](=O)[O-])cc2)cc1; test: purified protein; type: biochemical, Oryza sativa; conditions: 37°C, optimal pH
purified protein [6] = substrate: Nc1nc2c(ncn2[C@@H]2O[C@H](COP(=O)(O)OP(=O)(O)O)[C@@H](O)[C@H]2O)c(=O)[nH]1; test: purified protein; type: biochemical, Oryza sativa; conditions: 37°C, optimal pH
purified protein [7] = substrate: Nc1ccn([C@@H]2O[C@H](COP(=O)(O)OP(=O)(O)O)[C@@H](O)[C@H]2O)c(=O)n1; test: purified protein; type: biochemical, Oryza sativa; conditions: 37°C, optimal pH
purified protein [8] = substrate: Nc1ncnc2c1ncn2[C@@H]1O[C@H](COP(=O)(O)OP(=O)(O)O)[C@@H](O)[C@H]1O; test: purified protein; type: biochemical, Oryza sativa; conditions: 37°C, no metal required
purified protein [9] = substrate: O=c1[nH]cnc2c1ncn2[C@@H]1O[C@H](COP(=O)(O)OP(=O)(O)O)[C@@H](O)[C@H]1O; test: purified protein; type: biochemical, Oryza sativa; conditions: 37°C, optimal pH
purified protein [10] = substrate: O=P(O)(O)OP(=O)(O)O; test: purified protein; type: biochemical, Oryza sativa; conditions: 37°C, optimal pH
[11] = substrate: O=c1ccn([C@@H]2O[C@H](CO[P@@](=O)(O)O[P@@](=O)(O)O[C@H]3O[C@H](CO)[C@@H](O)[C@H](O)[C@H]3O)[C@@H](O)[C@H]2O)c(=O)[nH]1; test: purified protein, by the assay type; parameters: steady-state hydrolysis kinetics of purified recombinant rice NPPs, substrate 0.1-10 mM, 37 °C, optimal pH
Description: as §1

[12] = optimal pH (pH 6.0 with ADP-glucose), no metal required, pH 6.0
[13] = optimal pH (pH 4.5 with ADP), pH 4.5
[14] = optimal pH (pH 5.0 with ADP-glucose), pH 5.0
[15] = optimal pH (pH 4.0 with ADP), pH 4.0

- Km (NPP1): 800 µM
Molecule: Nc1nc2c(ncn2[C@@H]2O[C@H](COP(=O)(O)OP(=O)(O)O[C@H]3O[C@H](CO)[C@@H](O)[C@H](O)[C@@H]3O)[C@@H](O)[C@H]2O)c(=O)[nH]1 [GDP-mannose]

Molecule: Nc1ncnc2c1ncn2[C@@H]1O[C@H](COP(=O)(O)OP(=O)(O)OP(=O)(O)O)[C@@H](O)[C@H]1O [ATP]
- Km (NPP1): 2100 µM

- Km (NPP1): 900 µM
Molecule: Nc1ccn([C@@H]2O[C@H](COP(=O)(O)OP(=O)(O)O[C@H]3O[C@H](CO)[C@@H](O)[C@H](O)[C@H]3O)[C@@H](O)[C@H]2O)c(=O)n1 [CDP-glucose]

B1: NPP1 (Oryza sativa Japonica Group) (protein)
chain: T1 sequence (Q0X0G2 26-623)
notes: recombinant, purified from transgenic rice cells (UNP1) overexpressing NPP1 cDNA; 70 kDa SDS-PAGE, 251 kDa gel filtration; gene on chromosome 8
- Km (purified protein [1]; [12]): 800 µM
- Vmax (purified protein [1]; [12]): 183 µmol/min/mg
- kcat (purified protein [1]; [12]): 214 s⁻¹
- kcat/Km (purified protein [1]; [12]): 250000 M⁻¹ s⁻¹
- Km (purified protein [2]): 800 µM
- Vmax (purified protein [2]): 93 µmol/min/mg
- kcat (purified protein [2]): 109 s⁻¹
- kcat/Km (purified protein [2]): 133000 M⁻¹ s⁻¹
- Km [3]: 1600 µM
- Vmax [3]: 121 µmol/min/mg
- kcat [3]: 141 s⁻¹
- kcat/Km [3]: 85000 M⁻¹ s⁻¹

B2: NPP2 (Oryza sativa Japonica Group) (protein)
chain: RGDEQPLSRIAIERATVAAVDSASVKAQPTVLGLKGQSSDWVVVEFSHPKPSNDDWIGVFSPSGFSSEICQPEYYGDLPPYLCTSPIKFQYANFNNADYNRSGKGLLRLQLINQREDFSFALFSGGLSAPKLIAISNKVSFQNPKAPVYPRLAQGKSWNEMTVTWTSGYSIKEAIPFVEWGHKGGNQMLSPAGTLTFSRNSMCGSPARTVGWRDPGYIHTSFLKELWPDSLYTYRLGHRLLDGTHIWSKSYSFRASPYPGQDSVQRVVIFGDMGKAEIDGSDEYGNYEQASLYTTNQLIKELDSIDMVIHIGDLSYANGYLSQWDQFTQQIEPIASTVPYMIGSGNHERDWPGSGSFYGHNDSGGECGVPTQTMFYVPAENRAKLWYSTDYGMFRFCIADTEQDWRPGTEQYKFIEQCLSSVDRSKQPWLIFLAHRVLGYSSASWYEIMMGSYGEPMGRDGLEELWQKYKVDLAVFGHIHSYERTCPIYQNRCVQDGSNLYTGQFNATTHVIVGGGGAMLSPFRATVPYWSFFRDYDFGFSKLTALNHSTLLFEYKKSRDGKVYDHFTISRDYRDIMACSIDNCPRTTLAV
notes: recombinant, purified from transgenic rice cells (UNP2); 71 kDa SDS-PAGE, 374 kDa gel filtration; gene on chromosome 12
- Km (purified protein [4]): 1200 µM
- Vmax (purified protein [4]): 85 µmol/min/mg
- kcat (purified protein [4]): 101 s⁻¹
- kcat/Km (purified protein [4]): 84000 M⁻¹ s⁻¹
- Km (purified protein [5]): 2600 µM
- Vmax (purified protein [5]): 60 µmol/min/mg
- kcat (purified protein [5]): 71 s⁻¹
- kcat/Km (purified protein [5]): 27000 M⁻¹ s⁻¹
- Km (purified protein [6]): 900 µM
- Vmax (purified protein [6]): 24 µmol/min/mg
- kcat (purified protein [6]): 28 s⁻¹
- kcat/Km (purified protein [6]): 32000 M⁻¹ s⁻¹
- Km (purified protein [7]): 1900 µM
- Vmax (purified protein [7]): 76 µmol/min/mg
- kcat (purified protein [7]): 89 s⁻¹
- kcat/Km (purified protein [7]): 47000 M⁻¹ s⁻¹
- Km (purified protein [8]; [13]): 1100 µM
- kcat (purified protein [8]; [13]): 80 s⁻¹
- kcat/Km (purified protein [8]; [13]): 73000 M⁻¹ s⁻¹
- Km (purified protein [9]): 2200 µM
- Vmax (purified protein [9]): 75 µmol/min/mg
- kcat (purified protein [9]): 88 s⁻¹
- kcat/Km (purified protein [9]): 40000 M⁻¹ s⁻¹

B3: NPP6 (Oryza sativa Japonica Group) (protein)
chain: GGGGGVWAFSSSSSSSSYSRIGEQPLSLIGIHRATVGIDAAASVQASPRLLGVKGEDTAWVTVDFAAPHASDGDWIGVFSPSNFNASTCPGPSGSDSGPVICSAPIKYQLANYSSDYGKTGKGTLKFQLINQRQDFSFALFTGGLSNPKLIAVSNKIAFANPKAPVYPRLAQGKSWNEMTVTWTSGYDIKEAYPFVEWGMKWSPPTRTAAGTVTFDRESLCGEPARTVGWRDPGFIHTAFLTDLWPNKEYYYKIGHMLPDGKIVWGKFYSFKAPPFPGQKSLQRVVIFGDMGKAERDGSNEYSNYQPGSLNTTDTLIKDLDNIDIVFHIGDITYANGYISQWDQFTQQVEPITARVPYMIASGNHERDWPNSGSFFNGTDSGGECGVLAETMYYTPTENRANYWYKTDYGMFRFCVADSEHDWREGTEQYAFIESCLATVDRKKQPWLVFIAHRVLGYSSGFFYGAGGAFAEPTARQSLQRLWQRHRVDLAFYGHVHNYERTCPVYDGRCASPERSRYSGAVGGTIHAVVGGGGSHLSNFTAEAPPWSVYREMDYGFVKLTAFNYTSLLYEYRRSSDGEVHDSFTVHREYRDVLACVADSCPPTIPPAT
notes: recombinant, purified from transgenic rice cells (UNP6); 74 kDa SDS-PAGE, 224 kDa gel filtration; gene on chromosome 9
- Km (purified protein [4]): 500 µM
- Vmax (purified protein [4]): 84 µmol/min/mg
- kcat (purified protein [4]): 104 s⁻¹
- kcat/Km (purified protein [4]): 203000 M⁻¹ s⁻¹
- Km (purified protein [5]): 3000 µM
- Vmax (purified protein [5]): 250 µmol/min/mg
- kcat (purified protein [5]): 308 s⁻¹
- kcat/Km (purified protein [5]): 103000 M⁻¹ s⁻¹
- Km (purified protein [10]): 500 µM
- Vmax (purified protein [10]): 64 µmol/min/mg
- kcat (purified protein [10]): 79 s⁻¹
- kcat/Km (purified protein [10]): 175000 M⁻¹ s⁻¹
- Km (purified protein [1]; [14]): 700 µM
- Vmax (purified protein [1]; [14]): 105 µmol/min/mg
- kcat (purified protein [1]; [14]): 130 s⁻¹
- kcat/Km (purified protein [1]; [14]): 193000 M⁻¹ s⁻¹
- Km (purified protein [8]; [15]): 300 µM
- Vmax (purified protein [8]; [15]): 68 µmol/min/mg
- kcat (purified protein [8]; [15]): 83 s⁻¹
- kcat/Km (purified protein [8]; [15]): 297000 M⁻¹ s⁻¹
- Km [11]: 1600 µM
- kcat [11]: 115 s⁻¹
- kcat/Km [11]: 73000 M⁻¹ s⁻¹
